# Patent US20250011363A1, “OPTIMIZED SHORTENED PEPTIDE THAT BINDS TO ACETYLCHOLINE RECEPTOR, AND USE THEREOF” (SKINMED CO., LTD., priority 2021, published 2025)
# Target: acetylcholine receptor (Homo sapiens, UniProt P02708)
# Test: SPR binding affinity (RU) of optimized 5mer/6mer/7mer peptides, Examples 6-7
# Settings: 6mer-1 Top sequence; SPR; peptides tested at 10 μM
# Protocol: Based on the frequencies of occurrence of the top 7 amino acids from Table 7 in Example 5, 600 peptides comprising these amino acids (top combinations) and those comprising the 13 less frequently occurring amino acids (bottom combinations) were synthesized for each series of 5mer, 6mer-1, and 6mer-2. The binding affinity of each sequence for the acetylcholine receptor was measured using Surface Plasmon Resonance (SPR) analysis method. The peptides were tested at a concentration of 10 μM. Additionally, the average binding affinities of the top and bottom combinations in each series are depicted in FIGS. 5-7.
# Representative peptides identified in Example 6, two in each library, including 5mers (73, 311) and 6mers-1 (43, 210) and 6mers-2 (136, 233), were compared with the pre-optimized 6mer, 5mer-ND, and Synake.
# acetylcholine receptor, sequence (P02708 21-457): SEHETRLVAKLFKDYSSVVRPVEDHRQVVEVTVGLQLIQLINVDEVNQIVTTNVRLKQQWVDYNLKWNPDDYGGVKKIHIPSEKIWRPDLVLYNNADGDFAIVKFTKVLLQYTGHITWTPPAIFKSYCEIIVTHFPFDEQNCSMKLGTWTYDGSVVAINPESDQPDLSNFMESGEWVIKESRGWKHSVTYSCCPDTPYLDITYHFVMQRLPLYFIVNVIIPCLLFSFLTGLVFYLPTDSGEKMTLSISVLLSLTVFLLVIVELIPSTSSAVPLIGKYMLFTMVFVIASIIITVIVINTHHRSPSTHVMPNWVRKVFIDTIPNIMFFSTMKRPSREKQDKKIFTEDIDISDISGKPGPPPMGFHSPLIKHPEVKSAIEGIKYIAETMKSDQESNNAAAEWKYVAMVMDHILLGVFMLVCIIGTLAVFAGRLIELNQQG
row,Substance,Binding affinity [Ru]
1,6mer-1-392 (RRVQTR),135
2,6mer-1-385 (KRQVLR),127
3,6mer-1-378 (KRSLQK),153
4,6mer-1-273 (KKQVSK),137
5,6mer-1-370 (RKQLYK),142
6,6mer-1-205 (KRWRLR),133
7,6mer-1-292 (RKWQTK),122
8,6mer-1-229 (RRRLLR),153
9,6mer-1-379 (KRRISK),153
10,6mer-1-348 (RKQRLK),142

# Same assay, conditions: 6mer-2 Top sequence; SPR; peptides tested at 10 μM
row,Substance,Binding affinity [Ru]
1,6mer-2-39 (RWRYRK),137
2,6mer-2-14 (RGRQKK),153
3,6mer-2-140 (KGRLKK),142
4,6mer-2-120 (RRQCRK),146
5,6mer-2-22 (RQIRKK),124
6,6mer-2-135 (RWFYKK),124
7,6mer-2-56 (RSQLRR),149

# Same assay, conditions: SPR, Resonance Units; 5mer Bottom sequence (bottom combinations); peptides tested at 10 μM
row,Substance,Binding affinity [Ru]
1,5mer-1110 (RMHMK),13
2,5mer-804 (RNTIR),20
3,5mer-997 (RYPHR),30
4,5mer-746 (RMTVK),26
5,5mer-1076 (KFEKK),21
6,5mer-1079 (KYTGR),31
7,5mer-1045 (KMDEK),22
8,5mer-623 (KNTGR),19
9,5mer-1075 (RKHIK),26
10,5mer-955 (KNADK),14
11,5mer-1091 (KTEHR),29
12,5mer-744 (KTEAK),32
13,5mer-647 (KHTVK),29
14,5mer-967 (KKTHK),26
15,5mer-658 (KKWGR),31
16,5mer-1082 (RACFR),11

# Same assay, conditions: SPR, Resonance Units; peptides tested at 10 μM; 6mer-1 Bottom sequence
row,Substance,Binding affinity [Ru]
1,6mer-1-1132 (RRKAER),31
2,6mer-1-1066 (RKEDVK),23
3,6mer-1-1046 (RKDPHR),38
4,6mer-1-1181 (RRMDAK),21
5,6mer-1-1093 (RRKSDR),37

# Same assay, conditions: SPR, Resonance Units; peptides tested at 10 μM; 6mer-1 Bottom sequence (Table 11)
row,Substance,Binding affinity [Ru]
1,6mer-1-685 (RRESWK),14
2,6mer-1-753 (KKDTHK),12
3,6mer-1-732 (RRAAVR),26
4,6mer-1-641 (RREMFK),21
5,6mer-1-609 (RKNPVR),24
6,6mer-1-666 (KKAANK),18

# Same assay, conditions: SPR, Resonance Units; peptides tested at 10 μM; 6mer-2 Bottom sequence
row,Substance,Binding affinity [Ru]
1,6mer-2-623 (KHAHRR),13
2,6mer-2-645 (RIKVKK),15
3,6mer-2-815 (KICGRK),30
4,6mer-2-987 (RCHPKK),22
5,6mer-2-686 (KTWEKK),21
6,6mer-2-831 (RMTWRK),29
7,6mer-2-830 (RMKFKR),21
8,6mer-2-738 (KPWFKK),29
9,6mer-2-627 (KKTARR),33
10,6mer-2-981 (RCEIRK),32
11,6mer-2-935 (KKCNKK),22
12,6mer-2-734 (KHCHRR),17
13,6mer-2-687 (KADGRK),16
14,6mer-2-604 (KEPIRK),16
15,6mer-2-862 (RHTFKK),29
16,6mer-2-724 (KYTMKK),24
17,6mer-2-811 (KAMKRK),16
18,6mer-2-900 (RFSAKK),11
19,6mer-2-649 (KFDVRK),31
20,6mer-2-943 (KIDHRR),41
21,6mer-2-715 (RATHRK),32

# Same assay, conditions: SPR, Resonance Units; peptides tested at 10 μM; 6mer-2 Top sequence
row,Substance,Binding affinity [Ru]
1,6mer-2-442 (RLVQKR),139
2,6mer-2-449 (RGRCRR),154
3,6mer-2-561 (RRVLKK),142
4,6mer-2-436 (KVLYKR),148
5,6mer-2-404 (RVLSKR),121
6,6mer-2-480 (RRFTKK),147
7,6mer-2-438 (RLLCRK),131

# Same assay, conditions: SPR, Resonance Units; peptides tested at 10 μM; 6mer-2 Top sequence (Table 12)
row,Substance,Binding affinity [Ru]
1,6mer-2-354 (RWISKK),135
2,6mer-2-237 (RLVYKR),123
3,6mer-2-358 (RQIYKK),154
4,6mer-2-372 (KLVQRR),141
5,6mer-2-384 (RSFQKK),142
6,6mer-2-290 (RQLYRK),135
7,6mer-2-266 (RWQTKK),131
8,6mer-2-229 (RWQSKK),127
9,6mer-2-310 (KLFQRK),149
10,6mer-2-331 (RWVSKK),148

# Same assay, conditions: SPR, peptides at 10 μM; 6mer-2 Bottom sequence
row,Substance,Binding affinity [Ru]
1,6mer-2-1175 (RYSKRR),34
2,6mer-2-1146 (REWGRK),32
3,6mer-2-999 (RATIKR),31
4,6mer-2-1033 (KMDEKK),28
5,6mer-2-1003 (KPEWKR),42

# Same assay, conditions: SPR, peptides tested at 10 μM; 5mer Top sequence
row,Substance,Binding affinity [Ru]
1,5mer-400 (RWRCK),70
2,5mer-18 (RQLRR),69
3,5mer-203 (RQLTR),78
4,5mer-168 (KLFSK),84
5,5mer-341 (RWYRR),52
6,5mer-132 (RVRCK),83
7,5mer-148 (RSQTK),50
8,5mer-407 (RQIYK),58
9,5mer-176 (RVLYK),52
10,5mer-180 (KQRYR),74
11,5mer-476 (RSICK),70
12,5mer-465 (RWFRK),57
13,5mer-374 (KLFTR),75
14,5mer-81 (RGIYR),79
15,5mer-394 (KRRRK),66
16,5mer-301 (KWIRK),64
17,5mer-2 (KRISR),80
18,5mer-450 (RVIQK),78
19,5mer-401 (RGVLR),52
20,5mer-459 (RSQLR),76

# Same assay, conditions: SPR, peptides tested at 10 μM; 5mer Top sequence (top combinations)
row,Substance,Binding affinity [Ru]
1,5mer-300 (RQYRK),81
2,5mer-546 (KVVLK),65
3,5mer-570 (KLVRR),56
4,5mer-239 (KRLYR),61
5,5mer-277 (RVFTR),82
6,5mer-244 (KSVSK),78
7,5mer-514 (KLLLK),52
8,5mer-578 (KSVLR),65
9,5mer-235 (KGYSK),70
10,5mer-256 (RGVCK),60

# Same assay, conditions: SPR, peptides tested at 10 μM; 6mer-1 Bottom sequence (Table 11)
row,Substance,Binding affinity [Ru]
1,6mer-1-949 (RKEMPR),37
2,6mer-1-931 (KKNWPR),35
3,6mer-1-980 (RKICAK),33
4,6mer-1-920 (RRPAMR),40
5,6mer-1-863 (RRCTER),27

# Same assay, conditions: SPR, peptides tested at 10 μM; 6mer-1 Top sequence
row,Substance,Binding affinity [Ru]
1,6mer-1-559 (RRRLTK),139
2,6mer-1-427 (KRWVLR),147
3,6mer-1-571 (RKLLCK),154
4,6mer-1-592 (RRWLSK),135
5,6mer-1-408 (KRGRSR),147
6,6mer-1-471 (KKWRCK),123
7,6mer-1-562 (KRSYQR),148
8,6mer-1-506 (RRRLSK),151
9,6mer-1-557 (KRQVQK),128

# Same assay, conditions: SPR, peptides tested at 10 μM; 6mer-1 Top sequence (top combinations)
row,Substance,Binding affinity [Ru]
1,6mer-1-171 (RKQFQK),123
2,6mer-1-198 (KRLFCR),148
3,6mer-1-163 (KRLQTK),147

# Same assay, conditions: SPR; XRRGVRR-7mer and RRGVRRX-7mer
row,Substance,"Binding affinity, values relative to the RRGVRR sequence"
1,3646 (LRRGVRR) [compound 3646],149
2,3661 (RRGVRRG) [compound 3661],105

# Same assay, conditions: SPR; peptides tested at 10 μM; 5mer Bottom sequence
row,Substance,Binding affinity [Ru]
1,5mer-858 (RIMGR),33
2,5mer-1165 (RNMNR),21
3,5mer-1121 (RFKVK),29
4,5mer-825 (RDEKK),14
5,5mer-874 (RIHMR),27
6,5mer-877 (RFSMR),17
7,5mer-1173 (KECKR),30
8,5mer-1141 (REEVR),26
9,5mer-895 (RFTKK),18
10,5mer-827 (KKAGR),18
